The term Km denotes the concentration of substrate that gives half-maximal velocity. As usually defined, the kcat is the maximal rate divided by the concentration of active sites. What is called kcat/Km is the second-order rate constant that governs catalysis at low substrate concentration.

The values that follow come from US7132252B2, “Methods for detecting the interaction of compounds with cytochrome P450 using optical molecular sensors” (Invitrogen Corporation, priority 1998, dated 2006).

The target in data set [1] is T1, CYP3A4 (Homo sapiens, UniProt P08684). Kind of data set: Kinetic properties of fluorogenic substrates with CYP 3A4. In kind it is biochemical. The source says: For further understanding these terms in the context of this invention, attention is directed to FIG. 4 and the analysis of FIG. 4.
(§1) (respectively, MFC and MR).

The target of data set [2] is T1, CYP3A4. As to the kind of experiment: Kinetics of BOMR and BR toward CYP 3A4 (FIG. 4). Type of data set: biochemical. The note with it: from FIG. 4 data. From the text:
Whichever of the four abstractable hydrogen atoms (designated H^1 and H^2 in this representation of BOMR) is removed in the initial reaction step, with reference to Reaction Scheme 1 of FIG. 1, the hydroxylation product will spontaneously decompose to the free resorufin dye. In addition, the benzyloxy group, attached to the carbon carrying the two hydrogens designated H^2, contributes an inductive electronic effect on that carbon, which can stabilize the radical formed during abstraction of one of the H^2 hydrogens by a cytochrome P450.
Optimization of assay conditions was, and is preferably, accomplished through statistically validated Design of Experiments methodologies, using the commercial software package “Design-Expert®” produced by Stat-Ease® Inc. The data shown in FIGS. 4 and 5 were obtained with initial optimization.

The target in another data set is T2, CYP 2B6 (Homo sapiens, UniProt P20813).
T2 sequence (P20813 1-491): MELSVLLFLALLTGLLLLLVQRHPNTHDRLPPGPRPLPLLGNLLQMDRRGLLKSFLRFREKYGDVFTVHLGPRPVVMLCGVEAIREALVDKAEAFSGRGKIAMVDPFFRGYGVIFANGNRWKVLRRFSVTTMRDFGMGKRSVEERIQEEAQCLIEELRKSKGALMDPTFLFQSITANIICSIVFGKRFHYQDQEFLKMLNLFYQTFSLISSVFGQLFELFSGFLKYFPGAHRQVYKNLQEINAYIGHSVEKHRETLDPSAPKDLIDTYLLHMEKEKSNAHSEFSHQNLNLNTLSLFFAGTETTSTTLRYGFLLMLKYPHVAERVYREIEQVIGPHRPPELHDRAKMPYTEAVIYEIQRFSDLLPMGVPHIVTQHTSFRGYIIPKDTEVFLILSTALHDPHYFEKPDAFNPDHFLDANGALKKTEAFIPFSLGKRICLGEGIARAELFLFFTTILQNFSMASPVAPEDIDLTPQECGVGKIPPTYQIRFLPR
As to the kind of experiment: Kinetic properties of fluorogenic substrates with CYP 2B6. In kind it is biochemical.

Substrate in data set [3]: COCOc1ccc2nc3ccc(=O)cc-3oc2c1
As to the kind of experiment: Kinetic properties of fluorogenic substrates with CYP 2D6. In kind it is biochemical, human. The note with it: other: — = too low to quantify.
Source text: as §1

Substrate in data set [4]: COc1ccc(COc2ccc3c(C(F)(F)F)cc(=O)oc3c2)cc1
Described as above. Conditions: other: — = too low to quantify. In kind it is biochemical, human.
Source text: as §1

Substrate in data set [5]: CC(C)Oc1ccc2cc(C#N)c(=O)oc2c1
The description is as above. In kind it is biochemical, human. Conditions: other: — = too low to quantify.
Source text: as §1

Substrate in data set [6]: COc1ccc(COc2ccc3nc4ccc(=O)cc-4oc3c2)cc1
The data set is described as above. In kind it is biochemical, human. The note with it: other: — = too low to quantify.
Source text: as §1

Substrate in data set [7]: O=C(OCc1ccccc1)c1ccccc1-c1c2ccc(=O)cc-2oc2cc(OCc3ccccc3)ccc12
Kind of data set: Kinetic properties of fluorescein-based fluorogenic substrates with CYP 2C8. Type of data set: biochemical, human. The note with it: other: 100 mM K+ phosphate buffer, pH 7.5. The protocol:
(§2) Dibenzylfluorescein (DBF) was purchased form Gentest, Woburn, Mass. […] DBF, BOMF and DBOMF were diluted from a stock solution of 2 mM in acetonitrile to a 4×concentration of 80 μM in 100 mM K+ phosphate buffer. Seven 1:2 dilutions were made of each substrate of which 25 μl was added to the appropriate wells. […] The cytochrome P450 isozyme CYP3A4 was diluted to give a 0.5 pmol enzyme per well and added in a volume of 10 μl/well in K+ phosphate, pH 8.0. Enzymatic conversion of the substrate to products was allowed to proceed for 1 hour with fluorescence reads taken every four minutes on a fluorescence microtiter plate reader. The solution was illuminated using an 485/20 nm excitation filter and fluorescence emission was detected through a 530/25 nm the emission filter.
(§3) In deviation from the protocol described in Example 32, the phosphate-based buffer (100 mM K+ phosphate, pH 8.0) was replaced throughout the procedure by 100 mM K+ phosphate buffer, pH 7.5. […] Specifically, the substrate dibenzylfluorescein (DBF) (purchased form Gentest, Woburn, Mass.) and the sensor of the present invention DBOMF were tested for activity with CYP 2C8.

Substrate in data set [8]: O=C(OCOCc1ccccc1)c1ccccc1-c1c2ccc(=O)cc-2oc2cc(OCOCc3ccccc3)ccc12
The data set is described as above. In kind it is biochemical, human. The note with it: other: 100 mM K+ phosphate buffer, pH 7.5. How it is done:
as §2, §3

Substrate in data set [9]: N#Cc1cc2ccc(OCc3ccccc3)cc2oc1=O
As to the kind of experiment: Kinetic properties of fluorogenic substrates with CYP 2C19. Type of data set: biochemical, human. Conditions: other: — = too low to quantify.

Substrate in data set [10]: CCOc1ccc2cc(C#N)c(=O)oc2c1
The data set is described as above. In kind it is biochemical, human. The note with it: other: — = too low to quantify.

Substrate in data set [11]: CCCCCCCCOCOc1ccc2cc(C#N)c(=O)oc2c1
The data set is described as above. Conditions: other: — = too low to quantify. Type of data set: biochemical, human.

Substrate in data set [12]: CCOCOc1ccc2cc(C#N)c(=O)oc2c1
The data set is described as above. Type of data set: biochemical, human. The note with it: other: — = too low to quantify.

Substrate in data set [13]: CCCCCCCCOCOc1ccc2nc3ccc(=O)cc-3oc2c1
The data set is described as above. Type of data set: biochemical, human. The note with it: other: — = too low to quantify.

Substrate in data set [14]: N#Cc1cc2ccc(OCOCc3ccccc3)cc2oc1=O
The data set is described as above. In kind it is biochemical, human. Conditions: other: — = too low to quantify.

Substrate in data set [15]: COCOc1ccc2cc(C#N)c(=O)oc2c1
Described as above. Conditions: other: — = too low to quantify. Type of data set: biochemical, human.

Substrate in data set [16]: CC(C)Oc1ccc2cc(C#N)c(=O)oc2c1
The data set is described as above. Type of data set: biochemical, human. Conditions: other: — = too low to quantify.

Substrate in data set [17]: CCN(CC)Cc1cc(=O)oc2cc(OC)ccc12
The description is as above. Type of data set: biochemical, human. The note with it: other: — = too low to quantify.

[18] abbreviates: turnover rate at 1.25 uM substrate, — = too low to quantify.
[19] abbreviates: turnover rate at 10 uM substrate, — = too low to quantify.

T1 sequence (P08684 whole entry): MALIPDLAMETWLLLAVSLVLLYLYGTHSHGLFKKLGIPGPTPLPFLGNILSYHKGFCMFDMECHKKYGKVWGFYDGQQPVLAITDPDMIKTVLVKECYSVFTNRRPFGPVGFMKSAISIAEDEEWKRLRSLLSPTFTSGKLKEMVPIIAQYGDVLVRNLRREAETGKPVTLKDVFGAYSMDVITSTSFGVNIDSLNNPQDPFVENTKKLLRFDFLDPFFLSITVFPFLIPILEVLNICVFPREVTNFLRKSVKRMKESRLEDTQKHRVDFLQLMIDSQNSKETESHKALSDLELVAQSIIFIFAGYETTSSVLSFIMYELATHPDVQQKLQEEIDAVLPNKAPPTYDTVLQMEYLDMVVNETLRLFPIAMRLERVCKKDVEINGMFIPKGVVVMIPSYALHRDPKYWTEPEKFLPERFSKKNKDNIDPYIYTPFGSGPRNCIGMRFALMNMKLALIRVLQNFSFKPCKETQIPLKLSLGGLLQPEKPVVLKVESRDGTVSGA

Consider `O=c1ccc2nc3ccc(OCc4ccccc4)cc3oc-2c1` [BR, Benzylresorufin, reference compound], for which the type of kinetics entry at CYP3A4 [1] is on record as “Michaelis-Menten”; at CYP 2B6, “notMichaelis-Menten”. Moreover, the “v (1.25 uM)” value at CYP3A4 [1] (setting [18]) came out at 0.02 min⁻¹; on CYP 2B6 (setting [18]), 0.42 min⁻¹. Also, the figures for the “v (10 uM)” value on CYP3A4 [1] (setting [19]) and at CYP 2B6 (setting [19]) were 0.08 min⁻¹ and 0.42 min⁻¹, respectively. Also, the “turnover rate (kcat)” value at CYP3A4 [2] turned out to be 0.10 min⁻¹. In addition, on CYP3A4 [2] (human, CYP 3A4 enzyme), the Km was 5.3 µM.

B1: CYP 2D6 (Homo sapiens) (protein)
chain: MGLEALVPLAVIVAIFLLLVDLMHRRQRWAARYPPGPLPLPGLGNLLHVDFQNTPYCFDQLRRRFGDVFSLQLAWTPVVVLNGLAAVREALVTHGEDTADRPPVPITQILGFGPRSQGVFLARYGPAWREQRRFSVSTLRNLGLGKKSLEQWVTEEAACLCAAFANHSGRPFRPNGLLDKAVSNVIASLTCGRRFEYDDPRFLRLLDLAQEGLKEESGFLREVLNAVPVLLHIPALAGKVLRFQKAFLTQLDELLTEHRMTWDPAQPPRDLTEAFLAEMEKAKGNPESSFNDENLRIVVADLFSAGMVTTSTTLAWGLLLMILHPDVQRRVQQEIDDVIGQVRRPEMGDQAHMPYTTAVIHEVQRFGDIVPLGVTHMTSRDIEVQGFRIPKGTTLITNLSSVLKDEAVWEKPFRFHPEHFLDAQGHFVKPEAFLPFSAGRRACLGEPLARMELFLFFTSLLQHFSFSVPTGQPRPSHHGVFAFLVSPSPYELCAVPR
Turning to B1, the Km in [3] came to 8 µM; in data set [4], 5.0 µM; in data set [5] it was 18 µM; in data set [6], 3.1 µM. The kcat in [3] is 0.34 min⁻¹; in data set [4], 0.6 min⁻¹; in data set [5] it was 0.1 min⁻¹; in data set [6], 0.049 min⁻¹. For the same molecule, the kcat/Km came to 708 s⁻¹ M⁻¹ in [3], 2067 s⁻¹ M⁻¹ in [4], 93 s⁻¹ M⁻¹ in data set [5] and 263 s⁻¹ M⁻¹ in [6].

B2: CYP 2C8 (Homo sapiens) (protein)
chain: MEPFVVLVLCLSFMLLFSLWRQSCRRRKLPPGPTPLPIIGNMLQIDVKDICKSFTNFSKVYGPVFTVYFGMNPIVVFHGYEAVKEALIDNGEEFSGRGNSPISQRITKGLGIISSNGKRWKEIRRFSLTTLRNFGMGKRSIEDRVQEEAHCLVEELRKTKASPCDPTFILGCAPCNVICSVVFQKRFDYKDQNFLTLMKRFNENFRILNSPWIQVCNNFPLLIDCFPGTHNKVLKNVALTRSYIREKVKEHQASLDVNNPRDFIDCFLIKMEQEKDNQKSEFNIENLVGTVADLFVAGTETTSTTLRYGLLLLLKHPEVTAKVQEEIDHVIGRHRSPCMQDRSHMPYTDAVVHEIQRYSDLVPTGVPHAVTTDTKFRNYLIPKGTTIMALLTSVLHDDKEFPNPNIFDPGHFLDKNGNFKKSDYFMPFSAGKRICAGEGLARMELFLFLTTILQNFNLKSVDDLKNLNTTAVTKGIVSLPPSYQICFIPV
On to B2, for which, in data set [7], the Km stood at 2.0 µM, the catalytic constant (kcat) is 0.4 min⁻¹ and the kcat/Km is 3333 s⁻¹ M⁻¹. For the same molecule, in data set [8], the Km stood at 3.6 µM, the kcat was 2.1 min⁻¹ and the kcat/Km was 9722 s⁻¹ M⁻¹.

B3: CYP 2C19 (Homo sapiens) (protein)
chain: MDPFVVLVLCLSCLLLLSIWRQSSGRGKLPPGPTPLPVIGNILQIDIKDVSKSLTNLSKIYGPVFTLYFGLERMVVLHGYEVVKEALIDLGEEFSGRGHFPLAERANRGFGIVFSNGKRWKEIRRFSLMTLRNFGMGKRSIEDRVQEEARCLVEELRKTKASPCDPTFILGCAPCNVICSIIFQKRFDYKDQQFLNLMEKLNENIRIVSTPWIQICNNFPTIIDYFPGTHNKLLKNLAFMESDILEKVKEHQESMDINNPRDFIDCFLIKMEKEKQNQQSEFTIENLVITAADLLGAGTETTSTTLRYALLLLLKHPEVTAKVQEEIERVIGRNRSPCMQDRGHMPYTDAVVHEVQRYIDLIPTSLPHAVTCDVKFRNYLIPKGTTILTSLTSVLHDNKEFPNPEMFDPRHFLDEGGNFKKSNYFMPFSAGKRICVGEGLARMELFLFLTFILQNFNLKSLIDPKDLDTTPVVNGFASVPPFYQLCFIPV
Consider B3, for which the Km came out at 6.4 µM in data set [9]; 41.0 µM in [10]; 6.9 µM in data set [11]; 16.6 µM in data set [12]; 0.7 µM in data set [13]; 14.0 µM in data set [14]. Besides, the Km in [15] was found to be 3.2 µM; in data set [16], 57.2 µM; in data set [17], 8.5 µM. Further, the kcat in [9] came to 0.00167 s⁻¹; in data set [10] it was 0.0283 s⁻¹; in [11], 1.7 min⁻¹; in [12] it was 0.095 s⁻¹; in data set [13] it was 0.17 min⁻¹; in [14], 0.0317 s⁻¹. The figures for the kcat in [15], in data set [16] and in [17] were 0.00833 s⁻¹, 1.95 min⁻¹ and 0.4 min⁻¹, respectively. In addition, the kcat/Km came to 234 M⁻¹ s⁻¹ in [9]; 671 M⁻¹ s⁻¹ in data set [10]; 4106 s⁻¹ M⁻¹ in data set [11]; 5720 M⁻¹ s⁻¹ in data set [12]; 4048 s⁻¹ M⁻¹ in data set [13]; 2260 M⁻¹ s⁻¹ in data set [14]. Further, the kcat/Km came to 2060 M⁻¹ s⁻¹ in data set [15], 568 s⁻¹ M⁻¹ in [16] and 784 s⁻¹ M⁻¹ in [17].
